Measurements published in patent US20210393713A1 (University of Pennsylvania, published 2021).
Changes are numbered by the printed parent chain. Names and notes keep the numbering of the source.

T1: Twin-Strep-tagged LY6A, BALB/cJ variant (GPI-anchor truncated, soluble) (mouse (BALB/cJ), UniProt P05533 27-111)
T1 construct: range 1-111; also called BALB/cJ LY6A; BABL/cJ LY6A; not shown: Twin-Strep-tag from vector pESG-IBA103
T1 sequence: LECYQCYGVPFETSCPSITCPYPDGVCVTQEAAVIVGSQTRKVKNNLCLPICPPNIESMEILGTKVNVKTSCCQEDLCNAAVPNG

B1: AAV-PHP.B V592G mutant capsid (other)
chain: MAADGYLPDWLEDNLSEGIREWWALKPGAPQPKANQQHQDNARGLVLPGYKYLGPGNGLDKGEPVNAADAAALEHDKAYDQQLKAGDNPYLKYNHADAEFQERLKEDTSFGGNLGRAVFQAKKRLLEPLGLVEEAAKTAPGKKRPVEQSPQEPDSSAGIGKSGAQPAKKRLNFGQTGDTESVPDPQPIGEPPAAPSGVGSLTMASGGGAPVADNNEGADGVGSSSGNWHCDSQWLGDRVITTSTRTWALPTYNNHLYKQISNSTSGGSSNDNAYFGYSTPWGYFDFNRFHCHFSPRDWQRLINNNWGFRPKRLNFKLFNIQVKEVTDNNGVKTIANNLTSTVQVFTDSDYQLPYVLGSAHEGCLPPFPADVFMIPQYGYLTLNDGSQAVGRSSFYCLEYFPSQMLRTGNNFQFSYEFENVPFHSSYAHSQSLDRLMNPLIDQYLYYLSRTINGSGQNQQTLKFSVAGPSNMAVQGRNYIPGPSYRQQRVSTTVTQNNNSEFAWPGASSWALNGRNSLMNPGPAMASHKEGEDRFFPLSGSLIFGKQGTGRDNVDADKVMITNEEEIKTTNPVATESYGQVATNHQSAQTLAGPFKAQAQTGWVQNQGILPGMVWQDRDVYLQGPIWAKIPHTDGNFHPSPLMGGFGMKHPPPQILIKNTPVPADPPTAFNKDKLNSFITQYSTGQVSVEIEWELQKENSKRWNPEIQYTSNYYKSNNVEFAVNTEGVYSEPRPIGTRYLTRNL
B2: AAV-PHP.eB capsid (other)
chain: B1 chain with A587D, Q588G, G592V

Biological target: T1, Twin-Strep-tagged LY6A, BALB/cJ variant …
Experiment: ELISA, AAV particles on plate-bound Twin-Strep-tagged LY6A

| Binder | binding result |
| --- | --- |
| B1 | no binding |
| B2 | binds |
